Measured values taken from the supplement of paper PMC7125110.
± gives the standard error. For part of these data: Fewer inactive variants are shown than the library holds.

B1: glmS ribozyme (parent)
chain: AUAAAAGCGCCAGAACUACAGAAAUGUAGUUGACGAGGAGGAGGUUUAUCGAAUUUUCGGCGGAUGCCUCCAAA

Experiments:
Settings in all cases: with glucosamine-6-phosphate
glucosamine-6-phosphate [1] = variants of: B1; assay: kcat; higher = faster cleavage; RNA array
Procedure, shortened: (§1)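 Barcoded ribozyme variants were transcribed in situ on sequenced MiSeq chips by E. coli RNA polymerase. At 37 °C, a hybridised Cy3 probe tracked them while glucosamine-6-phosphate (40 μM to 10 mM) in HEPES/KCl/Mg(OAc)2 buffer flowed in and tiles were imaged over ~14 h. Per-tile medians of signals normalised to baseline and to non-cleaving reference variants were fit to one- or two-exponential decays, giving kobs. kcat and KM came from weighted Michaelis–Menten fits across concentrations.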

glucosamine-6-phosphate [2] = variants of: B1; assay: KM; higher = weaker cofactor use; RNA array
Procedure, shortened: as §1

glucosamine-6-phosphate [3] = variants of: B1; assay: self-cleavage kobs at 40 uM GlcN6P; higher = faster cleavage; RNA array
Procedure, shortened: as §1

glucosamine-6-phosphate [4] = variants of: B1; assay: self-cleavage kobs at 160 uM GlcN6P; higher = faster cleavage; RNA array
Procedure, shortened: as §1

glucosamine-6-phosphate [5] = variants of: B1; assay: self-cleavage kobs at 640 uM GlcN6P; higher = faster cleavage; RNA array
Procedure, shortened: as §1

glucosamine-6-phosphate [6] = variants of: B1; assay: self-cleavage kobs at 2500 uM GlcN6P; higher = faster cleavage; RNA array
Procedure, shortened: as §1

glucosamine-6-phosphate [7] = variants of: B1; assay: self-cleavage kobs at 10000 uM GlcN6P; higher = faster cleavage; RNA array
Procedure, shortened: as §1

For AUAAAAGCGCCAGAACUACAGAAAUGUAGUUGACGAGGACGAGGUUUAUCGAAUUUUCGGCGGAUGCCUCGAAA [G40C C71G], the kcat (glucosamine-6-phosphate [1]) was 0.0271 ± 0.0085 s⁻¹, the KM (glucosamine-6-phosphate [2]) was 1170 ± 420 µM and the “self-cleavage kobs at 40 uM GlcN6P” value (glucosamine-6-phosphate [3]) was 0.000948 ± 8.7e-05 s⁻¹. The “self-cleavage kobs at 160 uM GlcN6P” value (glucosamine-6-phosphate [4]) was 0.0028 ± 0.00046 s⁻¹, the “self-cleavage kobs at 640 uM GlcN6P” value (glucosamine-6-phosphate [5]) was 0.00953 ± 0.0017 s⁻¹ and the “self-cleavage kobs at 2500 uM GlcN6P” value (glucosamine-6-phosphate [6]) was 0.0203 ± 0.0057 s⁻¹.

With AUAAAAGCGCCAGAACUACAGAAAUGUAGUUGACGAGGAGGAGGUUUAUCGAAUUAUCGGCGGAUGGCUCCAAA [U56A C67G] the kcat (glucosamine-6-phosphate [1]) was 0.00221 ± 0.00081 s⁻¹, the KM (glucosamine-6-phosphate [2]) was 1310 ± 590 µM and the “self-cleavage kobs at 40 uM GlcN6P” value (glucosamine-6-phosphate [3]) was 6.73e-05 ± 6.8e-06 s⁻¹. The “self-cleavage kobs at 160 uM GlcN6P” value (glucosamine-6-phosphate [4]) was 0.000246 ± 2.7e-05 s⁻¹, the “self-cleavage kobs at 640 uM GlcN6P” value (glucosamine-6-phosphate [5]) was 0.000684 ± 0.00015 s⁻¹ and the “self-cleavage kobs at 2500 uM GlcN6P” value (glucosamine-6-phosphate [6]) was 0.000905 ± 0.00024 s⁻¹. The “self-cleavage kobs at 10000 uM GlcN6P” value (glucosamine-6-phosphate [7]) was 0.00313 ± 0.00047 s⁻¹.

In the case of AUAAACGCGCCAGAACUACAGAAAUGUAGUUGACGAGGAGGAGGUUUAUCGAAUUUUCGGCGGAUGCCACCAAA [A6C U69A], the kcat (glucosamine-6-phosphate [1]) is reported as 2.1e-05 ± 3.8e-06 s⁻¹.

For AUAAAAUCGCCAGAACUACAGAAAUGUAGUUGACGAGGAGGAGGUUUAUCGGAUUUUCGGCGGAUGCCUGCAAA [G7U A52G C70G], the kcat (glucosamine-6-phosphate [1]) was 3.01e-05 ± 9.2e-06 s⁻¹.

With AUAAAAGCGCCAGAACUACAGAAAUGUAGUUGACGAGGCGGAGGUUUAUCGAAUUUUCGGCGGAUGCCUCGAAA [A39C C71G] the kcat (glucosamine-6-phosphate [1]) was 1.47e-05 ± 1.2e-06 s⁻¹ and the “self-cleavage kobs at 160 uM GlcN6P” value (glucosamine-6-phosphate [4]) was < 1e-05 s⁻¹.

For AUAAAAGCGCCAGAACUACAGAAAUGUAGUUGACGAGGAGGAGGUUUAUCGAAGUUUCGGCGGAUGCGUCCAAA [U54G C68G], the kcat (glucosamine-6-phosphate [1]) was 0.0001 ± 1e-05 s⁻¹, the KM (glucosamine-6-phosphate [2]) was 89.1 ± 43 µM and the “self-cleavage kobs at 40 uM GlcN6P” value (glucosamine-6-phosphate [3]) was 2.37e-05 ± 7.3e-06 s⁻¹. For the same variant, the “self-cleavage kobs at 160 uM GlcN6P” value (glucosamine-6-phosphate [4]) was 6.82e-05 ± 8.7e-06 s⁻¹, the “self-cleavage kobs at 640 uM GlcN6P” value (glucosamine-6-phosphate [5]) was 0.000111 ± 1.1e-05 s⁻¹ and the “self-cleavage kobs at 2500 uM GlcN6P” value (glucosamine-6-phosphate [6]) was 8.41e-05 ± 9.1e-06 s⁻¹. For the same variant, the “self-cleavage kobs at 10000 uM GlcN6P” value (glucosamine-6-phosphate [7]) was 9.69e-05 ± 8.7e-06 s⁻¹.

For AUAAAAGCGCCAGAACUACAGAAAUGUAGUUGACGAGGAGGAGGUUUAUCGAAUUUUCGGCGGAUGUCUUCAAA [C67U C70U], the kcat (glucosamine-6-phosphate [1]) was 0.000418 ± 1.7e-05 s⁻¹, the KM (glucosamine-6-phosphate [2]) was 1370 ± 110 µM and the “self-cleavage kobs at 160 uM GlcN6P” value (glucosamine-6-phosphate [4]) was 4.68e-05 ± 6.2e-06 s⁻¹. For the same variant, the “self-cleavage kobs at 640 uM GlcN6P” value (glucosamine-6-phosphate [5]) was 0.000132 ± 9.5e-06 s⁻¹, the “self-cleavage kobs at 2500 uM GlcN6P” value (glucosamine-6-phosphate [6]) was 0.000264 ± 2e-05 s⁻¹ and the “self-cleavage kobs at 10000 uM GlcN6P” value (glucosamine-6-phosphate [7]) was 0.000377 ± 3e-05 s⁻¹.

With AUAAAAGCGCCAGAACUACAGAAAUGUAGUUGACGGGGAGGAGGUUUAUCGAAUUUUCGGCGGAUGCCUUCAAA [A36G C70U] the kcat (glucosamine-6-phosphate [1]) was 3.34e-05 ± 3.8e-06 s⁻¹, the “self-cleavage kobs at 2500 uM GlcN6P” value (glucosamine-6-phosphate [6]) was 3.3e-05 ± 1.3e-05 s⁻¹ and the “self-cleavage kobs at 10000 uM GlcN6P” value (glucosamine-6-phosphate [7]) was 2.96e-05 ± 1.1e-05 s⁻¹.

With AUAAAAGCGCCAGAACUACAGAAAUGUAGUUGACGAGGAGGAGGUUUAUCGAGUUUUCGGCGGAUGCCGCCAAA [A53G U69G] the kcat (glucosamine-6-phosphate [1]) was 6.03e-05 ± 8.2e-06 s⁻¹, the “self-cleavage kobs at 40 uM GlcN6P” value (glucosamine-6-phosphate [3]) was 5.96e-05 ± 1e-05 s⁻¹ and the “self-cleavage kobs at 160 uM GlcN6P” value (glucosamine-6-phosphate [4]) was 0.000101 ± 1.8e-05 s⁻¹. For the same variant, the “self-cleavage kobs at 640 uM GlcN6P” value (glucosamine-6-phosphate [5]) was 6.89e-05 ± 1.2e-05 s⁻¹, the “self-cleavage kobs at 2500 uM GlcN6P” value (glucosamine-6-phosphate [6]) was 5.73e-05 ± 9.6e-06 s⁻¹ and the “self-cleavage kobs at 10000 uM GlcN6P” value (glucosamine-6-phosphate [7]) was 5.13e-05 ± 8e-06 s⁻¹.

In the case of AUAAAAGCGCCAGUAGUACAGAAAUGUAGUUGACGAGGAGGAGGUUUAUCGAAUUUUCGGCGGAUGCCUCCAAA [A14U C16G], the kcat (glucosamine-6-phosphate [1]) is reported as 0.000881 ± 0.00019 s⁻¹, the KM (glucosamine-6-phosphate [2]) is reported as 1840 ± 670 µM and the “self-cleavage kobs at 160 uM GlcN6P” value (glucosamine-6-phosphate [4]) is reported as 5.83e-05 ± 1.7e-05 s⁻¹. The “self-cleavage kobs at 640 uM GlcN6P” value (glucosamine-6-phosphate [5]) was 0.000263 ± 3.3e-05 s⁻¹, the “self-cleavage kobs at 2500 uM GlcN6P” value (glucosamine-6-phosphate [6]) was 0.000429 ± 6.7e-05 s⁻¹ and the “self-cleavage kobs at 10000 uM GlcN6P” value (glucosamine-6-phosphate [7]) was 0.000865 ± 0.00015 s⁻¹.

AUAAAAGCGCCAGAACUACAGAAAUGUAGUUGACGAGGAGGAGGUUUAUCGAAGUUUCGGCGGAUGCCUCCAAA [U54G] was tested, and the kcat (glucosamine-6-phosphate [1]) was 0.0504 ± 0.0099 s⁻¹, the KM (glucosamine-6-phosphate [2]) was 1870 ± 470 µM and the “self-cleavage kobs at 40 uM GlcN6P” value (glucosamine-6-phosphate [3]) was 0.00117 ± 3.8e-05 s⁻¹. For the same variant, the “self-cleavage kobs at 160 uM GlcN6P” value (glucosamine-6-phosphate [4]) was 0.00365 ± 0.00023 s⁻¹, the “self-cleavage kobs at 640 uM GlcN6P” value (glucosamine-6-phosphate [5]) was 0.0116 ± 0.00052 s⁻¹ and the “self-cleavage kobs at 2500 uM GlcN6P” value (glucosamine-6-phosphate [6]) was 0.0251 ± 0.0014 s⁻¹. The “self-cleavage kobs at 10000 uM GlcN6P” value (glucosamine-6-phosphate [7]) was 0.0511 ± 0.0026 s⁻¹.

With AUAAAAGCGCCAGAACUACAGACAUGUAGUUGACGAGGAGGAGGUUUAUCGAAUUUUCGGCGGAUGCCUACAAA [A23C C70A] the kcat (glucosamine-6-phosphate [1]) was 0.000172 ± 3.1e-05 s⁻¹, the KM (glucosamine-6-phosphate [2]) was 139 ± 68 µM and the “self-cleavage kobs at 40 uM GlcN6P” value (glucosamine-6-phosphate [3]) was 3.76e-05 ± 1.2e-05 s⁻¹. For the same variant, the “self-cleavage kobs at 2500 uM GlcN6P” value (glucosamine-6-phosphate [6]) was 0.000302 ± 0.0001 s⁻¹ and the “self-cleavage kobs at 10000 uM GlcN6P” value (glucosamine-6-phosphate [7]) was 0.000156 ± 3.2e-05 s⁻¹.

For AUAAAAGCGCCAGAACUACAGAAAUGUAGUUGACGAGGAGGAGGUUUAUCGAAUUUUCGGCGGAUACCUCGAAA [G66A C71G], the kcat (glucosamine-6-phosphate [1]) was 0.00165 ± 0.00056 s⁻¹, the KM (glucosamine-6-phosphate [2]) was 1470 ± 720 µM and the “self-cleavage kobs at 40 uM GlcN6P” value (glucosamine-6-phosphate [3]) was 5.97e-05 ± 7.2e-06 s⁻¹. For the same variant, the “self-cleavage kobs at 160 uM GlcN6P” value (glucosamine-6-phosphate [4]) was 0.000141 ± 1.8e-05 s⁻¹, the “self-cleavage kobs at 640 uM GlcN6P” value (glucosamine-6-phosphate [5]) was 0.000486 ± 6.2e-05 s⁻¹ and the “self-cleavage kobs at 2500 uM GlcN6P” value (glucosamine-6-phosphate [6]) was 0.000935 ± 9.9e-05 s⁻¹. For the same variant, the “self-cleavage kobs at 10000 uM GlcN6P” value (glucosamine-6-phosphate [7]) was 0.00264 ± 0.00044 s⁻¹.

For AUAAAAGCGCCAGAACUACAGAAAUGUAGUUGACGAGGAGGAGGUUUAUCGAUUUUUCGGCGGAGGCCUCCAAA [A53U U65G], the kcat (glucosamine-6-phosphate [1]) was 0.00461 ± 0.00078 s⁻¹, the KM (glucosamine-6-phosphate [2]) was 4560 ± 1200 µM and the “self-cleavage kobs at 40 uM GlcN6P” value (glucosamine-6-phosphate [3]) was 3.59e-05 ± 7e-06 s⁻¹. For the same variant, the “self-cleavage kobs at 160 uM GlcN6P” value (glucosamine-6-phosphate [4]) was 0.000238 ± 5.5e-05 s⁻¹, the “self-cleavage kobs at 640 uM GlcN6P” value (glucosamine-6-phosphate [5]) was 0.000611 ± 0.00011 s⁻¹ and the “self-cleavage kobs at 2500 uM GlcN6P” value (glucosamine-6-phosphate [6]) was 0.00152 ± 0.0002 s⁻¹. The “self-cleavage kobs at 10000 uM GlcN6P” value (glucosamine-6-phosphate [7]) was 0.00323 ± 0.00034 s⁻¹.

For AUAAAAGCGCCAGAACUACAGAAAUGUAGUUGACGAGUGGGAGGUUUAUGGAAUUUUCGGCGGAUGCCUCCAAA [G38U A39G C50G], the kcat (glucosamine-6-phosphate [1]) was 3.57e-05 ± 8.1e-06 s⁻¹.

With AUAAAGGCGCCAGAACUACAGAAAUGUAGUUGACGAGGAGGAGGUUUAUCGAAUUUUCGGCGGAAGCCUCCAAA [A6G U65A] the kcat (glucosamine-6-phosphate [1]) was 7.49e-05 ± 1.1e-05 s⁻¹, the “self-cleavage kobs at 2500 uM GlcN6P” value (glucosamine-6-phosphate [6]) was 4.41e-05 ± 1.2e-05 s⁻¹ and the “self-cleavage kobs at 10000 uM GlcN6P” value (glucosamine-6-phosphate [7]) was 6.05e-05 ± 9.8e-06 s⁻¹.
